The first assay has as its target T1, human recombinant HLA-B*08:01 and b2m (human).
T1 construct: expressed in E. coli and purified; stability of the peptide-MHC complex read as b2m associated with the heavy chain over time at 37 C
Description: pMHC dissociation assay at 37 C; mean half-life grade. The method, then:
Peptide-MHC stability assays for HLA-B*08:01 peptides were performed. The data were obtained using a proximity based, homogenous, real-time assay in order to measure the dissociation of peptides from HLA class I molecules. First, human recombinant HLA-B*08:01 and b2m were expressed in E. coli and purified in a series of liquid chromatography based steps (Ferre et al., 2003; Ostergaard et al., 2001). Then, the stability of a peptide-MHC complex (pMHC) was determined by measuring the amount of b2m associated with the MHC heavy chain over time at 37° C. (Harndahl et al., 2012). The stability of each pMHC, expressed as the half life of b2m associated with the respective heavy chain, was calculated by fitting the data to a one-phase dissociation equation.
Take VLLPRLVSC: the “mean half-life (T1/2) of peptide-MHC complex” value (“mean half-life” below) was in the range of 2 to 4 h.

In the case of TSHERLTTL, the “mean half-life” value is 4 to 6 h. Regarding YLLEKSRVI, the “mean half-life” value was 4 to 6 h. As to HLLLKVLAF, the “mean half-life” value fell in the range of 4 to 6 h. Regarding YPKARLAF, the “mean half-life” value is 6 to 10 h.

VLKHKLDEL: the “mean half-life” value was in the range of 2 to 4 h.

With ALKTTTTAL, the “mean half-life” value lay in the range of 2 to 4 h. Regarding QAKTHSTL, the “mean half-life” value fell in the range of 2 to 4 h. On the same count and under the same terms, the same measure for TSMPRSSAM: 6 to 10 h; for MGSARVAEL: 4 to 6 h; for SIKTKSAEM: 6 to 10 h. Same read-out and setting: the same measure for LPKLAGLL: 2 to 4 h; for QGLLRPVF: 4 to 6 h; for MYKMKKPI: 2 to 4 h.

For the molecule MLRKIAVAA, the “mean half-life” value was 2 to 4 h. Same read-out and setting: for HVKEKFLL the value was 4 to 6 h; for TPKLRETSI, 4 to 6 h. On the same count and under the same terms, for FAFRKEAL the value was 4 to 6 h; for EAMKRLSYI, 2 to 4 h; for NAMLRKVAV, 2 to 4 h. Still for that read-out and setting: the same measure for KLKERNREL: 6 to 10 h.

Another assay has as its target T2, HLA-A*01:01 (human).
T2 construct: also called peptide-receptive MHC molecules
In words: UV-exchange b2m ELISA; exchange-yield grade. The method, boiled down:
(§1)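 UV-exchange products diluted 100-fold, captured on streptavidin-coated wells, 1 h 37 °C; HRP anti-β2m 2 ug/ml, 1 h 37 °C; TMB, A450. Standards: refolded HLA-A*02:01/MLA-001, 15-500 ng/ml. Yield = β2m signal of stabilised MHC.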
A general note: In an ELISA, binding on a coated surface is turned into a signal by an enzyme label.
For the molecule VMEQSAGIMY, the peptide exchange yield fell in the range of 20 to 50%. In the case of VLLDEGAMLLY, the peptide exchange yield lay in the range of 20 to 50%.

FVDNQYWRY displayed a peptide exchange yield of 50 to 75%.

NVTMKVVSVLY yielded a peptide exchange yield of 50 to 75%. The molecule DMDEEIEAEY returned a peptide exchange yield of 20 to 50%. On the same count and under the same terms, the same measure for SPVTSVHGGTY: 20 to 50%; for QLDSNRLTY: 50 to 75%. Consider RWEKTDLTY, for which the peptide exchange yield is 20 to 50%.

The molecule LLDEGAMLLY registered a peptide exchange yield greater than 75%. On the same count and under the same terms, the same measure for TVTGAEQIQY: 20 to 50%; for ETIRSVGYY: 50 to 75%.

In a further assay the target is T3, HLA-A*24:02 (human).
T3 construct: also called peptide-receptive MHC molecules
Description: UV-exchange b2m ELISA; exchange-yield grade. The procedure, abridged: as §1
RFTTMLSTF yielded a peptide exchange yield greater than 75%. On the same count and under the same terms, for VYNHTTRPL the value was greater than 75%; for SYFRGFTLI, greater than 75%. On the same count and under the same terms, the same measure for VYTPTLGTL: greater than 75%; for KYEKIFEML: greater than 75%; for VYHDDKQPTF: greater than 75%. Same read-out and setting: for RYGPVFTV the value was greater than 75%.

As to KYVKVFHQF, the peptide exchange yield was greater than 75%. Still for that read-out and setting: the same measure for IYSPQFSRL: greater than 75%; for KYVAELSLL: greater than 75%. Still for that read-out and setting: for KYPVHIYRL the value was greater than 75%; for RYSDSVGRVSF, greater than 75%. As to TAYMVSVAAF, the peptide exchange yield lay in the range of 50 to 75%. Still for that read-out and setting: for FYFPTPTVL the value was greater than 75%. The same measure, in the same setting: the same measure for LYQPRASEM: 50 to 75%.

Regarding SYNEHWNYL, the peptide exchange yield is greater than 75%. Same read-out and setting: the same measure for SFAPRSAVF: greater than 75%; for SYSDLHYGF: greater than 75%; for VYTFLSSTL: greater than 75%. For the molecule VFVSFSSLF, the peptide exchange yield was 50 to 75%. For the molecule RYLAVVHAVF, the peptide exchange yield was greater than 75%.

For the origin of these results see US20180222961A1 (IMMATICS BIOTECHNOLOGIES, published 2018).
